Laboratory results: paper PMC10839789, “More indications for redox-sensitive cysteine residues of the Arabidopsis 5-aminolevulinate dehydratase” (Frontiers in Plant Science, 2023)

Tests used:
[1] = target: the molecule itself; test: non-reducing SDS-PAGE with immunoblot (disulfide-linked oligomers); ALAD oxidised with diamide, dialysed, then 1 uM ALAD incubated 30 min with diamide, DTT (0.1-10 mM) or 0.1 mM DTT with TRX-f1/TRX-m1 (6.7 uM) or BSA (2 uM); free Cys blocked with NEM; non-reducing 10% SDS-PAGE; anti-His blot
[2] = target: the molecule itself; test: non-reducing SDS-PAGE with immunoblot (disulfide-linked oligomers); recombinant ALAD preincubated 15 min at RT with 1 mM diamide (oxidising) or untreated; non-reducing 12% SDS-PAGE; anti-His blot

| Protein | binding result [1] | binding result [2] |
| --- | --- | --- |
| recombinant 6xHis-ALAD (Arabidopsis thaliana 5-aminolevulinic acid dehydratase 1, mature, wild type) (enzyme, UniProt Q9SFH9 53-430, looked up, ALAD1 (HEMB1, AT1G69740), Arabidopsis thaliana, cloned without the transit peptide (aa 1-52, ChloroP); mature ALAD1 is Ala53 to Arg430 of the 430-residue precursor; pET28a(+); also called ALAD1; ALAD(WT); source: E. coli Rosetta (DE3), purified (Ni-NTA agarose); not shown: His6, N-terminal, kept) ASESGNGHAKKLGMSDAECEAAVAAGNVPEAPPVPPKPAAPVGTPIIKPLNLSRRPRRNRASPVTRAAFQETDISPANFVYPLFIHEGEEDTPIGAMPGCYRLGWRHGLVQEVAKARAVGVNSIVLFPKVPEALKNSTGDEAYNDNGLVPRTIRLLKDKYPDLIIYTDVALDPYSSDGHDGIVREDGVIMNDETVHQLCKQAVSQARAGADVVSPSDMMDGRVGAIRSALDAEGFQNVSIMSYTAKYASSFYGPFREALDSNPRFGDKKTYQMNPANYREALIEAREDEAEGADILLVKPGLPYLDIIRLLRDKSPLPIAAYQVSGEYSMIKAGGVLKMIDEEKVMMESLMCLRRAGADIILTYFALQAATCLCGEKR | binds | – |
| recombinant 6xHis-ALAD(C424S/C426S) (enzyme, Arabidopsis thaliana, UniProt Q9SFH9 53-430, looked up, ALAD1 (HEMB1, AT1G69740), Arabidopsis thaliana, mature form without the transit peptide (aa 1-52), Ala53 to Arg430; made by site-directed mutagenesis of pET28a(ALAD); also called ALAD(C424/C426); source: E. coli Rosetta (DE3), purified (Ni-NTA agarose); not shown: His6, N-terminal, kept) ASESGNGHAKKLGMSDAECEAAVAAGNVPEAPPVPPKPAAPVGTPIIKPLNLSRRPRRNRASPVTRAAFQETDISPANFVYPLFIHEGEEDTPIGAMPGCYRLGWRHGLVQEVAKARAVGVNSIVLFPKVPEALKNSTGDEAYNDNGLVPRTIRLLKDKYPDLIIYTDVALDPYSSDGHDGIVREDGVIMNDETVHQLCKQAVSQARAGADVVSPSDMMDGRVGAIRSALDAEGFQNVSIMSYTAKYASSFYGPFREALDSNPRFGDKKTYQMNPANYREALIEAREDEAEGADILLVKPGLPYLDIIRLLRDKSPLPIAAYQVSGEYSMIKAGGVLKMIDEEKVMMESLMCLRRAGADIILTYFALQAATSLSGEKR | – | binds |
